Results taken from the RNAGym collection of RNA variant scans (doi:10.7554/elife.80360).

B1: Hairpin Ribozyme (parent)
chain: GUCCUCUUUCACGUGCGCGUGAAAGAGAGAAGUGAACCAGAGAAACACACGUUGUGGUAUAUUACCUGGUA

Variants of: B1
Assay: self-cleavage, relative activity (ratio to wild type); higher = more cleavage; co-transcriptional
In the case of A26C C37G, the self-cleavage is reported as 0.373.
A26C C37A showed a self-cleavage of 0.156.
With A24U G40C the self-cleavage was 0.116.
In the case of G25U U33G, the self-cleavage is reported as 0.168.
In the case of G25C A26G, the self-cleavage is reported as 0.254.
In the case of G25U A41C, the self-cleavage is reported as 0.953.
Work on G25U A41G yielded a self-cleavage of 0.611.
Work on G25A G68U yielded a self-cleavage of 0.152.
G25A G68A showed a self-cleavage of 0.164.
A24U U62G gave a self-cleavage of 0.131.
Work on A26G U52C yielded a self-cleavage of 0.822.
Variant A26G U52G has a self-cleavage of 0.721.
Work on A26G A71C yielded a self-cleavage of 1.55.
Variant A26C A61C has a self-cleavage of 0.0459.
G25A A61C gave a self-cleavage of 0.196.
In the case of G25A C46U, the self-cleavage is reported as 0.116.
With A26C C50U the self-cleavage was 0.306.
Variant G25A U55G has a self-cleavage of 0.159.
G25A A44U showed a self-cleavage of 0.179.
In the case of A26C A31G, the self-cleavage is reported as 0.445.
Variant A26C A31C has a self-cleavage of 0.0424.
In the case of A26C A31U, the self-cleavage is reported as 0.097.
In the case of G25A A47C, the self-cleavage is reported as 0.107.
G25U A39C showed a self-cleavage of 0.336.
A24U A41G showed a self-cleavage of 0.71.
G25U A30G gave a self-cleavage of 0.124.
G25U A30U showed a self-cleavage of 0.0827.
For A24U C38A, the self-cleavage was 0.154.
In the case of A26C U60A, the self-cleavage is reported as 0.659.
In the case of G25C G68A, the self-cleavage is reported as 0.192.
Work on G25U U62C yielded a self-cleavage of 0.123.
Work on G25A A59C yielded a self-cleavage of 0.196.
G25A A59U gave a self-cleavage of 0.21.
A24U A59G gave a self-cleavage of 0.183.
In the case of A26G U60G, the self-cleavage is reported as 0.717.
Work on A26G C46G yielded a self-cleavage of 0.19.
With A26G G57U the self-cleavage was 0.252.
A26C A43C gave a self-cleavage of 0.159.
For A24U A49C, the self-cleavage was 0.104.
A24U A49U showed a self-cleavage of 0.216.
G25A A49U gave a self-cleavage of 0.209.
In the case of G25U A43U, the self-cleavage is reported as 0.217.
With G25U A43G the self-cleavage was 0.183.
For A26G U55G, the self-cleavage was 0.153.
In the case of A26G U55C, the self-cleavage is reported as 0.206.
With A24G U55C the self-cleavage was 0.196.
With A24G U55A the self-cleavage was 0.272.
G25U C37A showed a self-cleavage of 0.261.
Variant G25C A61U has a self-cleavage of 0.213.
In the case of A24G U53A, the self-cleavage is reported as 0.822.
In the case of G25C G69A, the self-cleavage is reported as 0.149.
In the case of A26C G34C, the self-cleavage is reported as 1.47.
G25C A41U showed a self-cleavage of 0.931.
In the case of G25A U62C, the self-cleavage is reported as 0.224.
G25A U62A gave a self-cleavage of 0.121.
With A24G G51C the self-cleavage was 0.829.
In the case of A24U C50G, the self-cleavage is reported as 0.341.
G25C A36C showed a self-cleavage of 0.539.
With G25C A36G the self-cleavage was 0.497.
With G25U C65G the self-cleavage was 0.211.
G25U C65A gave a self-cleavage of 0.735.
In the case of G25U C65U, the self-cleavage is reported as 0.188.
With G25U A44C the self-cleavage was 0.229.
With G25U A44U the self-cleavage was 0.113.
In the case of G25U A44G, the self-cleavage is reported as 0.165.
With G25C A59C the self-cleavage was 0.232.
In the case of G25C A59U, the self-cleavage is reported as 0.134.
With G25U U60G the self-cleavage was 0.288.
For G25U U60C, the self-cleavage was 0.885.
Variant G25U A64C has a self-cleavage of 0.177.
In the case of A26G A36C, the self-cleavage is reported as 0.474.
With A26G A36U the self-cleavage was 0.326.
With G25U G54C the self-cleavage was 0.241.
G25A C37U gave a self-cleavage of 0.494.
Variant A24G U33A has a self-cleavage of 0.118.
Variant G25A C48G has a self-cleavage of 0.0903.
A26G G51C showed a self-cleavage of 0.78.
Variant A26G G51A has a self-cleavage of 0.938.
In the case of A26G G51U, the self-cleavage is reported as 0.9.
A26U C48G showed a self-cleavage of 0.117.
For G25C C66G, the self-cleavage was 0.217.
For A26U G54C, the self-cleavage was 0.305.
With G25A U70C the self-cleavage was 0.588.
A24U U33C gave a self-cleavage of 0.0916.
Work on A26U G57A yielded a self-cleavage of 0.184.
With A24U G56C the self-cleavage was 0.14.
Variant A26C G57U has a self-cleavage of 0.32.
A26U G32U gave a self-cleavage of 0.202.
For A26G C37A, the self-cleavage was 0.268.
A26U A36U showed a self-cleavage of 0.414.
A26U A36C gave a self-cleavage of 0.343.
G25U U55G gave a self-cleavage of 0.195.
G25U U55A gave a self-cleavage of 0.216.
A26G A49U showed a self-cleavage of 0.288.
For A26G A49C, the self-cleavage was 0.148.
A24G G40A showed a self-cleavage of 0.338.
With A24G G40C the self-cleavage was 0.188.
Variant G25A G27A has a self-cleavage of 0.148.
Variant G25U C66U has a self-cleavage of 0.315.
For G25A U33A, the self-cleavage was 0.235.
G25A U33C showed a self-cleavage of 0.0884.
A26U A59G gave a self-cleavage of 0.181.
Work on A26C C48U yielded a self-cleavage of 0.173.
In the case of A26C C48A, the self-cleavage is reported as 0.045.
With G25U U67A the self-cleavage was 0.145.
For G25U G42C, the self-cleavage was 0.22.
In the case of G25U G42U, the self-cleavage is reported as 0.183.
A26U A41C showed a self-cleavage of 0.776.
Work on G25A U53A yielded a self-cleavage of 0.472.
Variant G25A U53C has a self-cleavage of 0.659.
G25U A49U gave a self-cleavage of 0.136.
G25A G32C gave a self-cleavage of 0.0951.
Work on G25C A47U yielded a self-cleavage of 0.0432.
Work on A26U A71G yielded a self-cleavage of 0.781.
Variant A26U C65A has a self-cleavage of 0.701.
Variant A26U C65U has a self-cleavage of 0.161.
For G25C U33G, the self-cleavage was 0.197.
Variant G25C U33C has a self-cleavage of 0.319.
G25A A41G showed a self-cleavage of 0.494.
G25C A45C gave a self-cleavage of 0.123.
In the case of G25C A45U, the self-cleavage is reported as 0.205.
For G25C A45G, the self-cleavage was 0.0878.
In the case of A24U, the self-cleavage is reported as 0.868.
In the case of A26G A43U, the self-cleavage is reported as 0.121.
Work on G25A G51C yielded a self-cleavage of 0.479.
In the case of A26C G54U, the self-cleavage is reported as 0.314.
Work on A26C G54A yielded a self-cleavage of 0.511.
With G25C G32U the self-cleavage was 0.0809.
Variant G25C G32A has a self-cleavage of 0.0816.
G25A A35C showed a self-cleavage of 0.738.
A26C G56U showed a self-cleavage of 0.23.
With A26C A41C the self-cleavage was 0.734.
With A24G U70A the self-cleavage was 0.746.
Variant G25U G68U has a self-cleavage of 0.159.
Work on G25U G68C yielded a self-cleavage of 0.243.
For G25C C65A, the self-cleavage was 0.382.
G25C C65G showed a self-cleavage of 0.174.
With A24G G42A the self-cleavage was 0.111.
Work on A24G G42C yielded a self-cleavage of 0.275.
With A24G G42U the self-cleavage was 0.289.
Work on A24U A43U yielded a self-cleavage of 0.121.
With A26U A47U the self-cleavage was 0.0699.
With A26U A35C the self-cleavage was 0.846.
For A26U A35U, the self-cleavage was 0.302.
G25C A39C gave a self-cleavage of 0.324.
With G25C A39U the self-cleavage was 0.262.
In the case of G25C U67G, the self-cleavage is reported as 0.152.
With G25C U67A the self-cleavage was 0.136.
G25A G57A showed a self-cleavage of 0.205.
With A24U A71U the self-cleavage was 0.783.
In the case of A26G G54A, the self-cleavage is reported as 0.605.
With A26G A39U the self-cleavage was 0.407.
For A26C A30U, the self-cleavage was 0.165.
A26C A30G showed a self-cleavage of 0.0971.
A26G A28U gave a self-cleavage of 0.491.
A26G A28C showed a self-cleavage of 0.358.
A26G C38A gave a self-cleavage of 0.131.
With A24U A30G the self-cleavage was 0.164.
Variant A24U A36G has a self-cleavage of 0.943.
In the case of A24U C46A, the self-cleavage is reported as 0.11.
Work on G25C C37G yielded a self-cleavage of 0.225.
A26G A47G gave a self-cleavage of 0.161.
A24G U60C gave a self-cleavage of 0.936.
For G25U C46A, the self-cleavage was 0.205.
For G25U C46U, the self-cleavage was 0.157.
G25C C38G showed a self-cleavage of 0.15.
With G25A U63G the self-cleavage was 0.173.
